The source of these data is US20150353933, “APTAMER AGAINST MIDKINE AND APPLICATIONS THEREOF” (RIBOMIC INC., published 2015).

Data set [1] concerns the target T1, midkine (AP-MK) (Homo sapiens, UniProt P21741 P21741:23-143).
T1 chain: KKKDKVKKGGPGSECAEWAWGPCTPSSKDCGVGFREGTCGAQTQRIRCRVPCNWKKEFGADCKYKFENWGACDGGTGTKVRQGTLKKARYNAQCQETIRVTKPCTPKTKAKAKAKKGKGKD
In words: inhibition; AP-MK binding to HepG2 cells. Particulars: tags: alkaline phosphatase fusion, APtag-5 vector (GenHunter), 293T culture supernatant. The procedure:
(§1) Using the above-mentioned AP-MK, a binding inhibitory experiment relative to TNB1 cell, which is a human neuroblastoma cell, was performed. TNB1 cells were seeded at 1×10⁵ cells/well on a 6-well plate coated with collagen I. The next day, the cells were washed with 1 mL of HBHA (HBSS+0.5 mg/mL BSA+20 mM HEPES pH 7.0), 1 U/mL AP or AP-MK, and further, the aptamer shown in SEQ ID NO: 7-1 at a final concentration of 100 nM were added and the mixture was maintained at room temperature for 90 min. After washing 5 times with 1 mL of HBHA, 200 μL of Cell Lysis Buffer (manufactured by GenHunter) was added and the mixture was stirred for 5 min. The cells were scraped with a Scraper and placed in an Eppendorf tube, vortexed for 10 sec and centrifuged at 15000 rpm for 2 min. The supernatant was recovered, and heated at 65° C. for 10 min to inactivate endogenous AP. Using 50 μL, color development was performed in the same manner as above (15 min) and the activity of AP was calculated.
An altered form of SEQ ID NO: 7-1 was produced, and AP-MK binding inhibitory experiment was performed using HepG2 and TNB1 cells and in the same manner as above. The sequences of the altered forms actually produced are shown below. While Poly dA for BIAcore measurement is added to the 3′-terminus of the aptamers shown in SEQ ID NO: 9 and SEQ ID NO: 9-1-5, an influence on the activity is not expected. The 50% inhibitory concentration (IC₅₀) was determined from the concentrations at two, above and below points sandwiching the 50% inhibitory activity (Table 2).

Data set [2] deals with T1, midkine (AP-MK). In words: inhibition; AP-MK binding to HepG2, 500 nM aptamer. The note with it: tags: alkaline phosphatase fusion, APtag-5 vector (GenHunter), 293T culture supernatant. The method, then: as §1
An experiment similar to the above was performed using HepG2 cells which are human liver cancer-derived cells. It is already known that MK is deeply involved in the growth and inhibition of apoptosis of HepG2 cells (Ohuchida et al., Cancer 100, 2430-2436, 2004; Dai et al., World J. Gastroenterol. 15, 1966-1972, 2009). When the aptamer was added to the system, the binding of AP-MK and HepG2 was inhibited (Table 1).

Data set [3] has as its target T2, midkine (MK) (Homo sapiens, UniProt P21741 P21741:21-143).
T2 sequence: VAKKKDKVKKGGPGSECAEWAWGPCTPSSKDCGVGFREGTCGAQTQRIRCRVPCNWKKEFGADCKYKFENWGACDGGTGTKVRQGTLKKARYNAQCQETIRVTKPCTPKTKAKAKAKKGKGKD
Description: SPR; confirmed MK binding, as in Example 3. The note with it: tags: produced in yeast. The method, then: (§2) The binding activities of the oligonucleotides shown by SEQ ID NO:1 to 6 obtained in Examples 1 and 2 for MK were evaluated by a surface plasmon resonance method. The measurements were performed using BIAcore2000, manufactured by BIAcore. The sensor chip used was the SA chip, which had streptavidin immobilized thereon. Bound thereto was about 1000 RU of a 16-nucleotide Poly dT with biotin bound to the 5′ end thereof. […] 70 μL of MK for analyte, prepared at 0.5 μM, was injected.
Those aptamers were evaluated by the surface plasmon resonance method in the same manner as in Example 3, and they were confirmed to have MK binding activity.

The target in data set [4] is T2, midkine (MK). Description: SPR; strongly binds; 0.5 uM MK analyte; solution A. The note with it: tags: produced in yeast. The method, then:
as §2

Data set [5] deals with T2, midkine (MK). In words: SPR; strongly binds; 0.5 uM MK analyte; solution A (Na, K, Ca, Mg, Tris pH 7.6). The note with it: tags: produced in yeast. The method, then: as §2

B1: SEQ ID NO: 11 (ssRNA)
RNA: GCGCAAUGGUGAGUGGUUUAUCCGCCUGCGC
modifications: 3' idT; 2'-OMe at 1-10,12,15,16,19,24,26-31; 2'-F at U14,U17,U18,U21,C22,C23,C25; 2'-OH at G11,G13,A20
For B1, the concentration for half-maximal inhibition (IC50) with midkine (AP-MK) [1] worked out at 6.3 nM. That is a single-digit nanomolar value.

B2: SEQ ID NO: 11-1 (ssRNA)
RNA: GCGCAAUGGUGAGUGGUUUAUCCGCCUGCGC
modifications: 3' idT; 2'-OMe at 1-10,12,15,16,19,23-31; 2'-F at U14,U17,U18,U21,C22; 2'-OH at G11,G13,A20
Molecule B2 returned an IC50 in the data set with midkine (AP-MK) [1] of 7.8 nM.

B3: SEQ ID NO: 8-2 (ssRNA)
RNA: GUCUGUGUGGUUUAUCCGGAC
modifications: 5' 80PEG4ts; 3' idT; 2'-OMe at G1,G9,G10,U13,G18,G19,A20; 2'-F at other pyrimidines except C21 (unmodified as printed); 2'-OH at G5,G7,A14
B3 yielded an activity in the data set with midkine (AP-MK) [2] of 61 % inhibition. Further, in the data set with midkine (MK) [3], the binding result is “binds”.

B4: SEQ ID NO: 8 (ssRNA)
RNA: GUCUGUGUGGUUUAUCCGGAC
modifications: 2'-F pyrimidines
Consider B4, for which, in the data set with midkine (MK) [3], the binding result is recorded as “binds”.

B5: SEQ ID NO: 8-3 (ssRNA)
RNA: GUCUGUGUGGUUUAUCCGGAC
modifications: 5' 80PEG4gs; 3' idT; 2'-OMe at G1,G9,G10,U13,G18,G19,A20; 2'-F at other pyrimidines except C21 (unmodified as printed); 2'-OH at G5,G7,A14
B5 came in with an activity in the data set with midkine (AP-MK) [2] of 65 % inhibition. In the data set with midkine (MK) [3], the binding result is listed as “binds”.

B6: SEQ ID NO: 8-1 (ssRNA)
RNA: GUCUGUGUGGUUUAUCCGGAC
modifications: 2'-OMe at G1,G9,G10,U13,G18,G19,A20; 2'-F at all other pyrimidines; 2'-OH at G5,G7,A14
B6 registered an activity with midkine (AP-MK) [2] of 76 % inhibition. Further, the binding result with midkine (MK) [3] was “binds”.

B7: SEQ ID NO: 12 (ssRNA)
RNA: CGCAAUGGUGAGUGGUUUAUCCGCCUGCG
modifications: 3' idT; 2'-OMe at 1-8,14,15,18,23,25-29; 2'-F at U9,U13,U16,U17,U20,C21,C22,C24; 2'-OH at G10,A11,G12,A19
B7 had an IC50 in the data set with midkine (AP-MK) [1] of under 2 nM.

B8: SEQ ID NO: 2 (ssRNA)
RNA: GGGACACAAUGGACGUCUGUGUGGUUUAUCCGGAUGUCCGUCGUCCUCUGUCAUGUAACGGCCGACAUGAGAG
modifications: 2'-F pyrimidines; 16-nt poly A at 3' end for SPR
As to B8, the binding result with midkine (MK) [4] is given as “binds”.

B9: SEQ ID NO: 5 (ssRNA)
RNA: GGGACACAAUGGACGUCUGUGUGGUUUAUCCGGAUGUCCGUCGUCCUCGGUCAUGUAACGGCCGACAUGAGAG
modifications: 2'-F pyrimidines; 16-nt poly A at 3' end for SPR
For the molecule B9, in the data set with midkine (MK) [4], the binding result is on record as “binds”.

B10: SEQ ID NO: 4 (ssRNA)
RNA: GGGACACAAUGGACGUCUGUGUGGUUUAUCCGGAUGUCCGUCGUCCUCUGCCAUGUAACGGCCGACAUGAGAG
modifications: 2'-F pyrimidines; 16-nt poly A at 3' end for SPR
Regarding B10, the binding result with midkine (MK) [4] is “binds”.

B11: SEQ ID NO: 3 (ssRNA)
RNA: GGGACACAAUGGACGUCUGUGUGGUUUAUCCGGAUGUCCGUCGUCCUCUGUCGUGUAACGGCCGACAUGAGAG
modifications: 2'-F pyrimidines; 16-nt poly A at 3' end for SPR
As for B11, the binding result with midkine (MK) [4] is “binds”.

B12: SEQ ID NO: 6 (ssRNA)
RNA: GGGACACAAUGGACGUCUGUGUGGUUUAUCCGGACGUCCGUCGUCCUCUGUCGUGUAACGGCCGACAUGAGAG
modifications: 2'-F pyrimidines; 16-nt poly A at 3' end for SPR
As for B12, the binding result with midkine (MK) [4] is “binds”.

B13: SEQ ID NO: 10 (ssRNA)
RNA: GCUCGCAAUGGUGAGUGGUUUAUCCGCCUGCGCAGC
modifications: 3' idT; 2'-OMe at 1-11,17,18,21,26,28-36; 2'-F at U12,U16,U19,U20,U23,C24,C25,C27; 2'-OH at G13,A14,G15,A22
Molecule B13 gave a 50% inhibitory concentration (IC50) with midkine (AP-MK) [1] of under 2 nM.

B14: SEQ ID NO: 8-4 (ssRNA)
RNA: GUCUGUGUGGUUUAUCCGGAC
modifications: 5' 80PEG4ts; 3' idT; 2'-OMe at 1-3,8-10,13,18-21; 2'-F at U4,U6,U11,U12,U15,C16,C17; 2'-OH at G5,G7,A14
B14 yielded an activity in the data set with midkine (AP-MK) [2] of 58 % inhibition. Also, in the data set with midkine (MK) [3], the binding result was “binds”.

B15: SEQ ID NO: 8-5 (ssRNA)
RNA: GUCUGUGUGGUUUAUCCGGAC
modifications: 5' 80PEG4gs; 3' idT; 2'-OMe at 1-3,8-10,13,18-21; 2'-F at U4,U6,U11,U12,U15,C16,C17; 2'-OH at G5,G7,A14
Molecule B15 returned an activity with midkine (AP-MK) [2] of 61 % inhibition. Moreover, the binding result with midkine (MK) [3] is recorded as “binds”.

B16: SEQ ID NO: 1 (ssRNA)
RNA: GGGAGAGGAGAAGAGGAAGCUAUCGCAAUGGUGAGUGGUUUAUCCGCCUGCGCAUGGUUAGAGGACAGGAAUGAGGA
modifications: 2'-F pyrimidines; 16-nt poly A at 3' end for SPR
With B16, the binding result with midkine (MK) [5] was “binds”.
